How the values were obtained:
Experiment in all cases: cell-based or functional assay
[1] = target: catalytic domain of human MMP9 (human) (UniProt P14780)
active MMP13 = active MMP13 (UniProt P45452)
[2] = target: human MMP2 (pro-MMP2 activated with APMA) (human) (UniProt P08253)
Sequence of human MMP2 (pro-MMP2 activated with APMA) (human) (P08253 30-660): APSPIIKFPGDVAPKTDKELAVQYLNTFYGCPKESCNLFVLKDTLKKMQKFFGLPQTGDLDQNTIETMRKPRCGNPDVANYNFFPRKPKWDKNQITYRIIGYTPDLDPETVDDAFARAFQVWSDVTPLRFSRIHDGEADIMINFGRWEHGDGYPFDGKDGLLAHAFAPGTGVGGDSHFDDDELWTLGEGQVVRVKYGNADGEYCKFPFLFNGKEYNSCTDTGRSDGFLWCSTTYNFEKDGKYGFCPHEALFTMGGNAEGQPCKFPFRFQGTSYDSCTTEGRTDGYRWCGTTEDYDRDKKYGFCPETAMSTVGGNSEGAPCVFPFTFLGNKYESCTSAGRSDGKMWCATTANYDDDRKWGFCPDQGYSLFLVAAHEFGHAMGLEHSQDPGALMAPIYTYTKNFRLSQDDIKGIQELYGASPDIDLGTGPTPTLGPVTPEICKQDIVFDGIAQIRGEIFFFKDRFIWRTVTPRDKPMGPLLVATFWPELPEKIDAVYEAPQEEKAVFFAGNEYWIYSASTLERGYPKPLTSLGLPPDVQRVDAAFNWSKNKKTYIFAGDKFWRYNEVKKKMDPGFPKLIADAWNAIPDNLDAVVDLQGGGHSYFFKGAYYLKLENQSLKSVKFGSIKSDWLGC

Sequence of catalytic domain of human MMP9 (human) (P14780 107-444 limits assumed): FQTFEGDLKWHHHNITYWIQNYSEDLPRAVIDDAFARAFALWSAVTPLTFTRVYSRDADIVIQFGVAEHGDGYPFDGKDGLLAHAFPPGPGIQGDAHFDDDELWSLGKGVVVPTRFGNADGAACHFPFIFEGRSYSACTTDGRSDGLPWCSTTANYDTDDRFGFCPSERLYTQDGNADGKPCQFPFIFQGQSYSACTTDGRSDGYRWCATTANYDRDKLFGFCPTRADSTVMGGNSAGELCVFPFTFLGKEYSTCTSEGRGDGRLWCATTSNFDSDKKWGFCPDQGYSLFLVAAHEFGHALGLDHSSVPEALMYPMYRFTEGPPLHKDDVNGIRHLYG

MMP9 IC50 [1] | MMP13 IC50 (active MMP13) | MMP2 IC50 [2] | Substance
4.6 nM | 0.5 nM | 0.5 nM | TIMP-3 mutein F57N
4 nM | – | 0.3 nM | TIMP-3 mutein K45S, F57N
2.3 nM | 3.1 nM | 1 nM | TIMP-3 mutein P56N, G58T
0.5 nM | 2.2 nM | 0.8 nM | TIMP-3 mutein T63N, K65T

From US20190085054A1
